Reference: the supplement of paper PMC9732359
± gives the uncertainty stated by the source.

Assay: protein stability index of a GFP-peptide fusion (yeast GPS) (PSI 1-4); higher = more stable; sorted into four equal gates, so the index is relative within each strain
In short: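 Tiled 17-residue yeast protein peptides were fused downstream of GFP in a plasmid that also expresses Cherry, and the pooled library was carried in yeast. Mid-log cultures in leucine-free medium were sorted into four equal gates by GFP/Cherry fluorescence ratio, and plasmids from each gate were PCR-amplified and Illumina-sequenced, with reads assigned to strains by barcodes. The protein stability index for each peptide was each gate's read frequency times its gate number, summed.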

Sequence	protein stability index (doa10∆)	protein stability index (pdr5∆)	protein stability index (san1∆)	protein stability index (ubr1∆)
LSNIPLLLITHHSWSQS [ARP9]	2.25 ± 0.075	1.6 ± 0.045	1.51 ± 0.073	1.96 ± 0.047
LSPPEFLFHAISGREGL [RPO31]	2.17 ± 0.047	1.79 ± 0.053	1.48 ± 0.14	1.63 ± 0.046
LSPSGHKTFLVANVKDL [RPL32]		3.33 ± 0.26	2.84 ± 0.095	2.84 ± 0.17
LSQVYPTLVRSVISGNL [CSN12]	2.54 ± 0.072	2.92 ± 0.08	2.83 ± 0.1	2.48 ± 0.078
LSRNGKPVMEVTSSFFY [FAS1]	3.04 ± 0.077	2.99 ± 0.089	2.79 ± 0.086	2.6 ± 0.073
LSSAGKNSSVSSLMNGL [SRB5]		1.24 ± 0.11		
LSSLILKIFQEQSLEVF [SRB8]	2.5 ± 0.087	2.67 ± 0.12	2.88 ± 0.09	2.71 ± 0.1
LSTRAGGLGLNLQTADT [SNF2]	2.75 ± 0.084	2.7 ± 0.068	2.7 ± 0.076	3.2 ± 0.058
LSYISALGMMTRISSQF [RET1]	1.41 ± 0.063	1.34 ± 0.057	1.43 ± 0.16	1.14 ± 0.054
LTATPNSINKTTVPFKE [POP1]	1.75 ± 0.061	2.44 ± 0.06	1.66 ± 0.14	2.48 ± 0.054
LTGSPNNPLVQKKNFLF [ARP7]	2.9 ± 0.092	2.89 ± 0.1	2.27 ± 0.16	3.18 ± 0.066
LTKAQKYLDQVLDHQRA [RPL17B]	3 ± 0.096	2.96 ± 0.092	3.03 ± 0.079	2.98 ± 0.042
LTKAQKYLEQVLDHQRA [RPL17A]	2.69 ± 0.056	2.73 ± 0.063	2.47 ± 0.062	2.51 ± 0.039
LTLIFYDVLHDVFTINP [YML103C/NUP188]	1.7 ± 0.071	2.09 ± 0.051	2.3 ± 0.071	2.55 ± 0.054
LTLMEKAAFEDLKSKGL [FAS1]	3.03 ± 0.078	3.29 ± 0.088	3.2 ± 0.054	3.26 ± 0.052
LTNMMSPMGNAYSMGAQ [PGD1]	2.34 ± 0.062	2.64 ± 0.077	2.49 ± 0.084	2.68 ± 0.044
LTNQLYKNHELLKLERK [SNF2]	3.15 ± 0.063	3.12 ± 0.059	3.11 ± 0.039	3.2 ± 0.053
LTRQPTEGRSRDGGLRL [RET1]	2.07 ± 0.07	2.14 ± 0.077	2.06 ± 0.15	2.01 ± 0.059
LTSNLSNYSRTMTISHL [YJL039C/NUP192]	2.56 ± 0.074	2.32 ± 0.061	1.98 ± 0.084	2.48 ± 0.04
LTSTKVKQLENVSSNIV [RPS20]	1.75 ± 0.075	2.16 ± 0.12	2.65 ± 0.11	3.19 ± 0.075
LTVFYAIKKFKTEKDGV [SSN3]	2.17 ± 0.12	1.74 ± 0.057	2.42 ± 0.061	1.97 ± 0.085
LVAKFLYPIFLLDDKKL [YJR042W/NUP85]	1.49 ± 0.034	1.29 ± 0.033	1.16 ± 0.073	1.26 ± 0.027
LVGSWKKDRATGDADEP [RPO21]	3.14 ± 0.22	3.55 ± 0.11	3.15 ± 0.11	3.46 ± 0.081
LVSNPHEIYGSMPLEQL [SRB4]	3.01 ± 0.12	2.26 ± 0.065	3.1 ± 0.19	1.89 ± 0.1
LVTAGVAAAGITASTLL [CYT1]	1.57 ± 0.058	1.76 ± 0.066	1.62 ± 0.098	1.67 ± 0.044
LWDIMGDRQRLGEEHPL [RPT1]			3.31 ± 0.23	

Sequence	protein stability index (doa10∆)	protein stability index (pdr5∆)	protein stability index (san1∆)	protein stability index (ubr1∆)
LWGPHGLNSDAEEVRNF [ECM29]	3.77 ± 0.29	3.59 ± 0.15	3.5 ± 0.27	3.82 ± 0.16
LWNLNAYRTDVIQALGG [PRP8]	2.17 ± 0.055	2.16 ± 0.05	1.88 ± 0.088	1.93 ± 0.041
LYAITFRKGLGNPLLYD [QCR2]	1.25 ± 0.17	1.32 ± 0.25		
LYASDYASYFPYLLETY [RPN7]	1.62 ± 0.077	1.83 ± 0.086	1.39 ± 0.09	1.18 ± 0.044
LYEKLKQEIMMSDLFTF [ISW2]	2.69 ± 0.099	2.34 ± 0.063	2.14 ± 0.1	2.64 ± 0.06
LYFYRDPEEVEQQVAEE [RPS0A]	3.31 ± 0.087	3.31 ± 0.095	3.1 ± 0.082	3.56 ± 0.076
LYHHTTKTILSGTDGST [SRP72]	3.04 ± 0.068	2.82 ± 0.051	2.49 ± 0.088	2.83 ± 0.043
LYQSLTPQQLQMIQQRH [SNF5]	1.77 ± 0.037	2.24 ± 0.04	1.69 ± 0.053	2.08 ± 0.033
LYVPHSENRFPGWDFET [RPL5]	2.44 ± 0.12	2.89 ± 0.069	2.21 ± 0.1	2.68 ± 0.13
MAAALPNPTPSMINSVS [PGD1]	1.77 ± 0.05	2.3 ± 0.061	2.05 ± 0.052	2.1 ± 0.045
MAATATDKIGRSVPAPG [FAS2]	2.82 ± 0.081	3 ± 0.076	3.04 ± 0.073	3.01 ± 0.053
MAGVKAYELRTKSKEQL [RPL35A]	3 ± 0.11	3.38 ± 0.1	2.94 ± 0.067	3.17 ± 0.13
MAKVEVNLAAIPLGKNV [RIP1]	3.33 ± 0.3			
MAPNTSRKQKIAKTFTV [RPL22A]	2.15 ± 0.17	2.03 ± 0.089	2.61 ± 0.13	2.03 ± 0.092
MAQENSMERKVQGAAPW [MCD1]	3.35 ± 0.26	2.92 ± 0.11		
MAQTATQQQPGAPGANA [SRP54]	3.31 ± 0.065	3.22 ± 0.088	3.33 ± 0.054	3.21 ± 0.05
MARRPARCYRYQKNKPY [RPL10]	2.17 ± 0.092	2.13 ± 0.11	2.32 ± 0.092	2.4 ± 0.1
MARTKQTARKSTGGKAP [HHT1]	3.31 ± 0.12	3.25 ± 0.11	3.04 ± 0.1	3.39 ± 0.092
MASYMLNSFAFELCSLG [YJR042W/NUP85]	1.29 ± 0.17	1.51 ± 0.16		1.5 ± 0.23
MATIASEYSSEASNTPI [PRE7]	2.53 ± 0.094	2.76 ± 0.14	2.83 ± 0.08	2.93 ± 0.13
MATNRADTLDPALLRPG [RPT3]		3.31 ± 0.18		2.79 ± 0.28
MCVSKGNASLKYIALQV [YCG1]	2.54 ± 0.099	2.02 ± 0.077	1.48 ± 0.12	2.6 ± 0.084
MDETQTRAKIGGLNDPR [RPO21]	2.8 ± 0.1	2.24 ± 0.11	2.3 ± 0.1	1.85 ± 0.22
MDKKILLNINGSRKVAG [SMX2]	1.57 ± 0.06	1.84 ± 0.066	1.81 ± 0.09	2.11 ± 0.047
MDMNEIEDKENSESTTQ [RPT5]	3.04 ± 0.15	3.25 ± 0.12	3.16 ± 0.12	3.21 ± 0.098
